Assays:
[1] = biological target: MBP-ABI4 WT (Arabidopsis thaliana, UniProt A0MES8 1-328); assay: EMSA; poly(dI/dC); competed by excess unlabelled probe; 10 ul: 2 ug protein, 200 fmol biotin probe, 1 ul poly(dI/dC), 1x LightShift binding buffer, 5% glycerol; room temperature 20 min; 6% native PAGE; pH and salt not given; conditions: protein: recombinant; tags: MBP (pETMALc-H); label: 3' biotin
[2] = biological target: MBP-ABI4 AAA (Arabidopsis thaliana, UniProt A0MES8 1-328, T111A;S114A;S130A); assay: EMSA; poly(dI/dC); 10 ul: 2 ug protein, 200 fmol biotin probe, 1 ul poly(dI/dC), 1x LightShift binding buffer, 5% glycerol; room temperature 20 min; 6% native PAGE; pH and salt not given; conditions: protein: recombinant; tags: MBP (pETMALc-H); label: 3' biotin
MBP-ABI4 AAA, sequence (A0MES8 whole entry T111A/S114A/S130A): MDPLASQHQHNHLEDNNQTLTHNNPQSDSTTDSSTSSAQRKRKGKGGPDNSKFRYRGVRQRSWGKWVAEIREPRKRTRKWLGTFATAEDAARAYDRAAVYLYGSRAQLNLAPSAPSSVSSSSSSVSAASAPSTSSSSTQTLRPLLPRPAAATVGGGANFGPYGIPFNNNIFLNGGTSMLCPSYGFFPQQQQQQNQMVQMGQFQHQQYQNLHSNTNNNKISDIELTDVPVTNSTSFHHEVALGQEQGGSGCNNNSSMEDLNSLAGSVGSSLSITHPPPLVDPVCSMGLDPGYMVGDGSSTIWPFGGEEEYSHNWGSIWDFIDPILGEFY

MBP-ABI4 WT, sequence (A0MES8 whole entry): as the sequence (A0MES8 whole entry T111A/S114A/S130A) above, with A111T, A114S, A130S counted along it

B1: LHCB promoter probe (dsDNA)
DNA 1: GACTAGAGACTGCCACATAAGAATAGTAAAGTTA
DNA 2: TAACTTTACTATTCTTATGTGGCAGTCTCTAGTC
[1]
  binding result: binds
[2]
  binding result: no binding

— article PMC4942575, “Plastid-nucleus communication involves calcium-modulated MAPK signalling”
